Data: the DeepSol protein solubility set

assay: soluble on expression in E. coli; label from the status in PepcDB or PDB records

Sequence | soluble on expression in E. coli
MDESMRHDIALFRYGLIAPLVNGQVEPKAYLNEVGGRVHSIPHQGDKPIAAKTILDWCARYKKGGFDALKPKRRSDRGRSRRLSPDDEDHILALRKEHPTMPVTLFYEQLTKQGDIPTTLSYFTIYRLLKKHNLVGKEILPMPERKRFAYDQINELWQGDLSHGPTIRVHGKAQKTFLIAYIDDCSRLVPYAQFFPSEKFDGLRIVTKEAVLRCGKPKRIYSDNGKIYRSEVLQYACAEMGITLIHTQPYDPQSKGKIERFFRTVQTRFYPLLELNPPKSLDELNERFWKWLEEEYHRKPHASLDGKTPHEVFQSQVERVVWIEDIDWLDAIFLKREHRKVKADGTITLNKQLYEVPPRFIGQSIELRYDERGVYVYEDGKRVAEAIRVRLEDNAYVKRHRSPFAAVSAKEGEQDV | not soluble
MDFDNFPIEQLSHLISFDIEWTETSVADAIKIKDIILRSPHFESASILSHCVNKIKPEVLKVFHPNYIATDRDYNEMLELRNDYFRSIVYAGGSSIDIYNVNLEDPDDFE | not soluble
MDFKAKLLAEMAKKRKAVSGMEVKEGNAKFVKGADLEMKRNQEYERKQQEIASKKRKVDDEILQESSSRTKPAPVENESEIDEKTPMSEIQTRLRQRNHPIMLFGETDIDVRKRLHQLELAQPDLNEGWENELQTAMKVIGKEMDKAVVEGTADSATRHDIALPQGYEEDNWKNIEHNSTLLSVDDDLKRDCDIILSICRYILARWAKDLNDRPLDVKKTAQGMHEAAHHKQTMMHLKSLMTSMERYNCNNDIRHHLAKICRLLVIDRNYLEANNAYMEMAIGNAPWPVGVTRSGIHQRPGSAKSYVSNIAHVLNDETQRKYIQAFKRLMTKMQEYFPTDPSKSVEFVKKAV | not soluble
MDFSLTEEQELLLASIRELITTNFPEEYFRTCDQNGTYPREFMRALADNGISMLGVPEEFGGIPADYVTQMLALMEVSKCGAPAFLITNGQCIHSMRRFGSAEQLRKTAESTLETGDPAYALALTEPGAGSDNNSATTTYTRKNGKVYINGQKTFITGAKEYPYMLVLARDPQPKDPKKAFTLWWVDSSKPGIKINPLHKIGWHMLSTCEVYLDNVEVEESDMVGEEGMGFLNVMYNFEMERLINAARSTGFAECAFEDAARYANQRIAFGKPIGHNQMIQEKLALMAIKIDNMRNMVLKVAWQADQHQSLRTSAALAKLYCARTAMEVIDDAIQIMGGLGYTDEARVSRFWRDVRCERIGGGTDEIMIYVAGRQILKDYQNK | soluble
MDGSVVRHEERLNVGKERVESGRMRIRKHVVHDTETVEVPVEREEIHVERVPLDEKVAADDAKLSEGTQDIVTHEERPVVNKETVGVEKIKIGKEAVQDTETVSGKVAKEQIDIDNAKHTKLEHHHHHH | not soluble
MDHIELRKKIGQAIRTARIRRGLVMRDLAEAGGVSTGAVGNWERGANAIAMEHLQAISQKLRIDPVALSNGSLRYLDEEEALADAEQVTDFGPAPTGPMDVEVLGVAVGGDDGDFTLNGEVSGYVRRPPGIAHLRKVFALHVLSDSMIPRYDPGELIYVGGREAVAGDHVVIEMFPDEGATVGKAYVKKLKGRTKGAIVCEQYNPPKELQFDQYAIKNMWRIIPLRELLGY | not soluble
MDHLKHLQQLQNIERIVLSGIVLANHKIEEVHSVLEPSDFYYPPNGLFFEIALKLHEEDCPIDENFIRQKMPKDKQIKEEDLVAIFAASPIDNIEAYVEEIKNASIKRKLFGLANTIREQAHH | soluble
MDICDISASQLATSPPPRTAIDFNSSIEESPVKRVKFSPELTKSFEETLSPTVTLVLRNNEEVIFDRYLLSFYSNYFRVLFSSKFRDSNSTTHRIRLISASDLHFLLTIPKAFEQGIKPNITLQKAIELLEPAAFLQMSIALDYISDIICKNLTHENIIKIFRLALLYHTTLAVRVWRSMVRKFQTLFATNVYLSLKENELIGLLTDKHLNLKSEDETTVVVNWIKHNSPLQSDRLTQFAQRNFSRRPQPDATKYEVIRTRQPMDAIVCFGGWASRGVAQKIEVCNTRSDRWQTCNFNYDIPNIHRAYHGIEVVEDKLIVYGGFDGIKQFQTTVLFDLSTKEWRRGANMNDKRCYVTSARVNDSYGRPLVFACGGMNGVSRLKTAEMYDYRADQWTEVANMTQMRSDGAVVTIDNKIVAIGGFDGRNIHQGGEVYDPVLDLWHPLSSNMRTRRTGCTAVSIMNQVCMIIGGFNGNRRLDSAEIYDMREGLWHPEPTLQTARSNFSACQMDTCYVYVAGGFDGQTTTKESERLDLRSKMWQALPDMAEAKSALRMVTLSDHPFLDELFDIPDDTGIVTSW | not soluble
MDIHVLSYGLGNQLSQYAFFINRRQLMQRAYAFYAFKQHNGYELDRIFGLKEGLPWYLQFVRVVFRLGISRRFYSKRTADFVLSLFRIKVIDEAYNYEFDPSLLKPWFGIRILYGGWHDSRYFHPSEAAVRTAFSFPPLDDVNDAILQQIDAVYGVSIHVRRGDYLKGINSNLFGGIATLEYYRNAIGWAITYCKHRSLEIKFYVFSDDIDWCKQNLGLRDAVYVSGNSKTDSWKDILLMSHCRANIIANSTFSWWAAWLNQQPNKVVICPTKFINTDSPNQTIYPAAWHQIEGLEHHHHHH | not soluble
MDIKHEMIYREDDVLLVKSEPQLHSPCATGSNGLPAGAGSNLLCASNGLVTTLASGSSLNGLTNNVPSNGLSSSGPFSSIGGGVSASKRQRTDDWLSSPSGNVPPLTPSPGPPSHPYTVISNGYSSPMSSGSYDPYSPNGKIGREDLSPSSLNGYSADSCDSKKKKGPTPRQQEELCLVCGDRASGYHYNALTCEGCKGFFRRSITKNAVYQCKYGNNCEIDMYMRRKCQECRLKKCLSVGMRPECVVPEVQCAVKRKEKKAQKEKDKPNSSTNGSPDVIKVEPELSDSEKTLCNGSKGISPEQEELIHRLVYFQNEYEHPSEEDVKRIINQPMDGEDQCDVRFRHITEITILTVQLIVEFAKRLPGFDKLLREDQIALLKACSSEVMMFRMARRYDVQTDSILFVNNQPYSRDSYNLAGMGETIEDLLHFCRTMYSMRVDNAEYALLTAIVIFSERPALIEGWKVEKIQEIYLEALRAYVDNRRKPKPGTIFAKLLSVLTELRTLGNQNSEMCFSLKLKNKKLPPFLAEIWDVDLKT | soluble
MDILKLSDFIGNTLIVSLTEDRILVGSLVAVDAQMNLLLDHVEERMGSSSRMMGLVSVPRRSVKTIMIDKPVLQELTANKVELMANIV | not soluble
MDILKQLQSSTNLTPNVLARLAIALSLLSKEPIESFDSDTNGLEFNRNTLTGEYDFVYKALIAQQLGRPITDDEYFPSLIKKHLDRGAKWLENEYKYAGNYEKLIKGLAHFELEMIR | not soluble
MDILLMDTIQQEVLALFREEIPGYLDSNWKEIPLELDSDLFEAPGDDLHEALDKFEKKFNVDLSQVKWSCYFPWENTPLLTRWFKLKREDVERTRKPLTIRMFSESAKAGKWLYD | not soluble
MDITELLAFSAKQGASDLHLSAGLPPMIRVDGDVRRINLPPLEHKQVHALIYDIMNDKQRKDFEEFLETDFSFEVPGVARFRVNAFNQNRGAGAVFRTIPSKVLTMEELGMGEVFKRVSDVPRGLVLVTGPTGSGKSTTLAAMLDYLNNTKYHHILTIEDPIEFVHESKKCLVNQREVHRDTLGFSEALRSALREDPDIILVGEMRDLETIRLALTAAETGHLVFGTLHTTSAAKTIDRVVDVFPAEEKAMVRSMLSESLQSVISQTLIKKIGGGRVAAHEIMIGTPAIRNLIREDKVAQMYSAIQTGGSLGMQTLDMCLKGLVAKGLISRENAREKAKIPENFGAAALEHHHHHH | soluble
MDIYVCTVCGYEYDPAFEDLPDDWACPVCGASKDAFEKQ | soluble
MDKDMQLIRGLHNANRVLQGCALTIGNFDGVHLGHQTVLRHLRQKADELNLPMAVLLFESQPREYFMGKNAPARLMRLRDKIYYLEKAKVDVVIVAKFDRTFAEQLADVFIEQTLVNHLHVKFLSIGDDFKFGSKRQGNFAMLQAASKRFGFIVEDNRSFCLDAQRISSTAIREALANDDLQLAENLLGKPYRIFGRVIHGNKLGRTIGFPTANIRLHRQVNPIKGVYAVKVRLKSGEIFNGVANMGKRPTINGLMQLLEVHLFDFSQNIYGQMVEVEFCHKIRNEIKFPSFDDLKVQIEKDVETAKAFFNSLEHHHHHH | not soluble
MDKIEVRGARTHNLKNINLVIPRDKLIVVTGLSGSGKSSLAFDTLYAEGQRRYVESLSAYARQFLSLMEKPDVDHIEGLSPAISIEQKSTSHNPRSTVGTITEIHDYLRLLFARVGEPRCPDHDVPLAAQTVSQMVDNVLSQPEGKRLMLLAPIIKERKGEHTKTLENLASQGYIRARIDGEVCDLSDPPKLELQKKHTIEVVVDRFKVRDDLTQRLAESFETALELSGGTAVVADMDDPKAEELLFSANFACPICGYSMRELEPRLFSFNNPAGACPTCDGLGVQQYFDPDRVIQNPELSLAGGAIRGWDRRNFYYFQMLKSLADHYKFDVEAPWGSLSANVHKVVLYGSGKENIEFKYMNDRGDTSIRRHPFEGVLHNMERRYKETESSAVREELAKFISNRPCASCEGTRLRREARHVYVENTPLPAISDMSIGHAMEFFNNLKLAGQRAKIAEKILKEIGDRLKFLVNVGLNYLTLSRSAETLSGGEAQRIRLASQIGAGLVGVMYVLDEPSIGLHQRDNERLLGTLIHLRDLGNTVIVVEHDEDAIRAADHVIDIGPGAGVHGGEVVAEGPLEAIMAVPESLTGQYMSGKRKIEVPKKRVPANPEKVLKLTGARGNNLKDVTLTLPVGLFTCITGVSGSGKSTLINDTLFPIAQRQLNGATIAEPAPYRDIQGLEHFDKVIDIDQSPIGRTPRSNPATYTGVFTPVRELFAGVPESRARGYTPGRFSFNVRGGRCEACQGDGVIKVEMHFLPDIYVPCDQCKGKRYNRETLEIKYKGKTIHEVLDMTIEEAREFFDAVPALARKLQTLMDVGLTYIRLGQSATTLSGGEAQRVKLARELSKRGTGQTLYILDEPTTGLHFADIQQLLDVLHKLRDQGNTIVVIEHNLDVIKTADWIVDLGPEGGSGGGEILVSGTPETVAECEASHTARFLKPML | soluble
MDKQLNDAPCGFLALSEEGSIIAANRTLIKILDYEPEQVIGQHMNMMLTIPAQLFCQLYFFPLLKLEHHIEEIYISLKARDGEEIPVLINAIARHDSGASVFDCVL | not soluble
MDLEFGRFPIFSILEDMLEAPEEQTEKTRNNPSRAYMRDAKAMAATPADVIEHPDAYVFAVDMPGIKGDEIQVQIENENVLVVSGKRQRDNKENEGVKFVRMERRMGKFMRKFQLPDNADLEKISAACNDGVLKVTIPKLPPPEPKKPKTIQVQVA | soluble
MDLEYAMNPGGRRRFQNKDQATYGVFAPDSDDDDDEQGTSRGPYKKRSKISAPMSFVSGGIQQGNKIDKDDPASLNLNLGGEKKPKEDDEGSIQIDFDKRTKKAPKQNGAQVFAGMRSSANHGAADINQFGSWMRGDGNSNKIMKMMQAMGYKPGEGLGAQGQGIVEPVQAQLRKGRGAVGAYGKESTATGPKFGESAADAQKRMAQEGTSSRPTNDDQEKSGLKIKGSWKKSQTVKTKYRTIEDVMEEGMSASRPASHQQSQQYSNIKVIDMTGKQQKIYSGYDSFSMKTRSEYDTVDDEERTVFDVPELIHNLNLLVDLTEEGIRRSNQQLISLKDQTTALEYDLQQVQKSLGTEEQEAQHIKDVYELIDGFSSNRSPSMEECQELFRRLRSEFPHEYELYSLETVAIPTVLPLIQKYFVAWKPLEDKNYGCELISTWRDILDDSKNGRKMTFGHNKTKGDEIRAYDRIIWEGILPSIRRACLQWDPSTQMHEMIELVEQWIPLLSAWITENILEQLVVPKIAERVNQWDPMTDEIPIHEWLVPWLVLLGDRIQTVMPPIRQKLSKALKLWDPMDRSALETLRPWQNVWSAATFSAFIAQNIVPKLGVALDTMELNPTMNPEYPEWTACMEWLEFTHPDAIANIVTKYFFPRFYNCLCLWLDSPGVDYNEVKRWYGSWKARIPQVLVNYPTVNENLRRSMIAIGRSLQGEKVGGLQATPIAPMAPPPPMAPHFTQAAPVQKLSLKEIIEYTAGKNGFTYHPQKDRYKDGRQVFWFGALSIYLDSEMVYVMDPIEFVWRPSGLNELIQMAQGAQG | not soluble
